Measured values: patent US20190071490A1, “Preventing Post-Ictal Headaches” (Beth Israel Deaconess Medical Center, Inc., priority 2017, published 2019)

Assays:
[1] = biological target: human α-CGRP 1-37 (WT) (human); assay: Biacore, 25°C, Fab over biotinylated CGRP on SA chip
[2] = biological target: human α-CGRP 1-37 (WT) (human); assay: Biacore, 37°C, Fab over biotinylated CGRP on SA chip
rat α-CGRP (1-37) (rat) = assay: as above
[3] = biological target: human α-CGRP 1-37 (WT) (human); assay: Biacore SPR, 25 °C, Fab flowed across N-biotinylated peptide on SA chip
[4] = biological target: human α-CGRP K35A (19-37) (human); assay: Biacore SPR, 25 °C, Fab flowed across peptide on SA chip; KD of alanine mutant relative to parent fragment 19-37
[5] = biological target: human α-CGRP N31A (25-37) (human); assay: Biacore SPR, 25 °C, Fab flowed across peptide on SA chip; KD of alanine mutant relative to parent fragment 25-37
[6] = biological target: human α-CGRP V28A (25-37) (human); assay: as above
[7] = biological target: human α-CGRP P29A (25-37) (human); assay: as above
[8] = biological target: human α-CGRP S34A (25-37) (human); assay: as above
[9] = biological target: human α-CGRP V32A (25-37) (human); assay: as above
[10] = biological target: human α-CGRP F27A (25-37) (human); assay: as above
[11] = biological target: human α-CGRP G33A (25-37) (human); assay: as above
[12] = biological target: human α-CGRP T30A (25-37) (human); assay: as above
[13] = biological target: human α-CGRP fragment 25-37 (human); assay: Biacore SPR, 25 °C, Fab flowed across N-biotinylated peptide on SA chip; mean ± SD of two independent measurements on different chips
[14] = biological target: human α-CGRP fragment 19-37 (human); assay: as above
[15] = biological target: human α-CGRP fragment 25-37 (human); assay: Biacore, 25°C, Fab over biotinylated fragment (FIG. 1)

human α-CGRP 1-37 (WT) (human), sequence (peptide, as listed by the source): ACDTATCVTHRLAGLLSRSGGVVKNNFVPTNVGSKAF
rat α-CGRP (1-37) (rat), sequence (peptide, as listed by the source): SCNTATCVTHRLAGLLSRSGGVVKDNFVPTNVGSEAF

- Kd [1]: 61 nM
- Kd [2]: 139 nM
- Kd (rat α-CGRP (1-37) (rat)): 3.4 nM
- Kd [3]: 60.5 nM
- KD(mutant/parent) [4]: 0.3
- KD(mutant/parent) [5]: 0.3
- KD(mutant/parent) [6]: 0.8
- KD(mutant/parent) [7]: 0.2
- KD(mutant/parent) [8]: 0.8
- KD(mutant/parent) [9]: 0.9
- KD(mutant/parent) [10]: 0.8
- KD(mutant/parent) [11]: 1.3
- KD(mutant/parent) [12]: 0.2
- Kd [13]: 296 nM
- Kd [14]: 52 nM
- fold lower affinity than to full length human α-CGRP [15]: 6 fold
Substance: anti-CGRP antibody 4901, Fab fragment
